Test system: Escherichia coli TOP10
Experiment: shrunken log2 fold change of peptide-encoding DNA abundance (4.5 h post-induction vs induction); higher = less antimicrobial activity (less host growth inhibition)
Conditions: time post-induction: 4.5 h; library: site-saturation at positions 5, 18, 19, 20
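Also: peptides expressed intracellularly from a pBAD plasmid library in pooled LB shake-flask culture, induced with 0.3% L-arabinose, DNA abundance read by NGS, three biological replicates, DESeq2 with apeglm shrinkage.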

Sequence | shrunken log2 fold change
RRIRHRPPRLPRPRPRPQIMPRP | -0.682
RRIRQRPPRLPRPRPRPNYPPRP | -0.239
RRIRRRPPRLPRPRPRPMKFPRP | 0.212
RRIRMRPPRLPRPRPRPQVRPRP | -0.0122
RRIRWRPPRLPRPRPRPWDIPRP | -0.309
RRIRPRPPRLPRPRPRPSCQPRP | -0.733
RRIRERPPRLPRPRPRPPDHPRP | -0.0455
RRIRIRPPRLPRPRPRPINRPRP | -0.312
RRIRDRPPRLPRPRPRPQPIPRP | 0.152
RRIRHRPPRLPRPRPRPLWYPRP | -0.923
RRIRMRPPRLPRPRPRPWTEPRP | 0.0475
RRIRWRPPRLPRPRPRPTDRPRP | -0.0423
RRIRYRPPRLPRPRPRPPLCPRP | -0.173
RRIRPRPPRLPRPRPRPLEVPRP | -0.007
RRIRFRPPRLPRPRPRPWPMPRP | -0.117
RRIRDRPPRLPRPRPRPGAHPRP | 0.651
RRIRIRPPRLPRPRPRPFDKPRP | -0.177
RRIRCRPPRLPRPRPRPFMLPRP | -0.697
RRIRNRPPRLPRPRPRPVVWPRP | 0.55
RRIRDRPPRLPRPRPRPLEIPRP | 0.287
RRIRNRPPRLPRPRPRPGEKPRP | -0.01
RRIRHRPPRLPRPRPRPNIVPRP | -0.0257
RRIRDRPPRLPRPRPRPPLPPRP | 0.737
RRIRCRPPRLPRPRPRPIFQPRP | -0.0452
RRIRRRPPRLPRPRPRPFGWPRP | 0.271

Sequence | shrunken log2 fold change
RRIRCRPPRLPRPRPRPSTPPRP | -0.382
RRIRIRPPRLPRPRPRPAGRPRP | 0.132
RRIRIRPPRLPRPRPRPFLFPRP | -0.586
RRIRIRPPRLPRPRPRPSGVPRP | -0.666
RRIRKRPPRLPRPRPRPIQIPRP | -0.14
RRIRLRPPRLPRPRPRPLWMPRP | -0.00586
RRIRDRPPRLPRPRPRPAGTPRP | 0.207
RRIRCRPPRLPRPRPRPLRRPRP | 0.519
RRIRFRPPRLPRPRPRPCQWPRP | 0.0155
RRIRWRPPRLPRPRPRPKLCPRP | 0.0167
RRIRYRPPRLPRPRPRPCFAPRP | -0.521
RRIRNRPPRLPRPRPRPTRCPRP | 0.15
RRIRKRPPRLPRPRPRPWKNPRP | -0.00973
RRIRGRPPRLPRPRPRPGDNPRP | 0.0889
RRIRWRPPRLPRPRPRPIGCPRP | 0.268
RRIRTRPPRLPRPRPRPKLNPRP | 0.097
RRIRGRPPRLPRPRPRPLDYPRP | 0.0074
RRIRNRPPRLPRPRPRPMLHPRP | -0.263
RRIRCRPPRLPRPRPRPVYPPRP | -0.559
RRIRKRPPRLPRPRPRPSNIPRP | -0.306
RRIRYRPPRLPRPRPRPPIMPRP | -1.14
RRIRERPPRLPRPRPRPFTPPRP | 0.116
RRIRLRPPRLPRPRPRPYYNPRP | -1.18
RRIRIRPPRLPRPRPRPVIQPRP | -1.44
RRIRSRPPRLPRPRPRPPEYPRP | -0.154

Sequence | shrunken log2 fold change
RRIRTRPPRLPRPRPRPQIFPRP | -0.716
RRIRWRPPRLPRPRPRPCWQPRP | -0.0167
RRIRGRPPRLPRPRPRPAASPRP | 0.947
RRIRKRPPRLPRPRPRPYKSPRP | -0.243
RRIRTRPPRLPRPRPRPWEQPRP | 0.0248
RRIRVRPPRLPRPRPRPLIIPRP | -0.445
RRIRWRPPRLPRPRPRPLDLPRP | 0.00678
RRIRKRPPRLPRPRPRPNLAPRP | 0.25
RRIRKRPPRLPRPRPRPIIQPRP | 0.0837
RRIRYRPPRLPRPRPRPHPSPRP | 0.0761
RRIRSRPPRLPRPRPRPFAGPRP | -0.00284
RRIRFRPPRLPRPRPRPWPGPRP | 0.112
RRIRIRPPRLPRPRPRPCPNPRP | -0.159
RRIRQRPPRLPRPRPRPQEFPRP | -0.0104
RRIRRRPPRLPRPRPRPYPTPRP | -0.0423
RRIRHRPPRLPRPRPRPNCRPRP | -0.0986
RRIRHRPPRLPRPRPRPATDPRP | -0.185
RRIRYRPPRLPRPRPRPFDLPRP | -0.967
RRIRHRPPRLPRPRPRPPCCPRP | -0.0551
RRIRVRPPRLPRPRPRPFNEPRP | -0.258
RRIRNRPPRLPRPRPRPFIWPRP | -0.741
RRIRKRPPRLPRPRPRPDMFPRP | -0.258
RRIRGRPPRLPRPRPRPNPWPRP | 0.454
RRIRHRPPRLPRPRPRPVYDPRP | -0.202
RRIRDRPPRLPRPRPRPVHDPRP | 0.19

Sequence | shrunken log2 fold change
RRIRWRPPRLPRPRPRPHKRPRP | 0.0239
RRIRHRPPRLPRPRPRPGGMPRP | 0.274
RRIRMRPPRLPRPRPRPRYKPRP | 0.104
RRIRPRPPRLPRPRPRPQPSPRP | 0.641
RRIRERPPRLPRPRPRPAEVPRP | -0.0184
RRIRGRPPRLPRPRPRPWLHPRP | 0.106
RRIRQRPPRLPRPRPRPCHRPRP | 0.0197
RRIRPRPPRLPRPRPRPQQNPRP | 0.076
RRIRMRPPRLPRPRPRPPYLPRP | 0.204
RRIRSRPPRLPRPRPRPPGFPRP | 0.467
RRIRHRPPRLPRPRPRPISFPRP | -0.281
RRIRRRPPRLPRPRPRPCVSPRP | 0.0908
RRIRKRPPRLPRPRPRPNTCPRP | 0.0343
RRIRTRPPRLPRPRPRPDGFPRP | -0.0487
RRIRKRPPRLPRPRPRPYIFPRP | -0.129
RRIRYRPPRLPRPRPRPFPRPRP | -0.0964
RRIRDRPPRLPRPRPRPHHWPRP | 0.172
RRIRERPPRLPRPRPRPIYHPRP | -0.626
RRIRDRPPRLPRPRPRPLAMPRP | 0.767
RRIRFRPPRLPRPRPRPCFSPRP | -0.759
RRIRTRPPRLPRPRPRPAYHPRP | -0.0827
RRIRARPPRLPRPRPRPTRAPRP | 1
RRIRIRPPRLPRPRPRPIHGPRP | -0.0135
RRIRWRPPRLPRPRPRPWVRPRP | -0.172
RRIRKRPPRLPRPRPRPNHHPRP | -0.182

Sequence | shrunken log2 fold change
RRIRLRPPRLPRPRPRPRFSPRP | 0.0406
RRIRGRPPRLPRPRPRPHWFPRP | 0.156
RRIRYRPPRLPRPRPRPYVCPRP | -1.14
RRIRHRPPRLPRPRPRPTVLPRP | -0.109
RRIRERPPRLPRPRPRPMLIPRP | -0.266
RRIRGRPPRLPRPRPRPADQPRP | 0.887
RRIRDRPPRLPRPRPRPHPEPRP | 0.004
RRIRCRPPRLPRPRPRPNRDPRP | -0.167
RRIRVRPPRLPRPRPRPPDAPRP | 0.254
RRIRFRPPRLPRPRPRPDMKPRP | -0.25
RRIRKRPPRLPRPRPRPMIMPRP | -0.0451
RRIRIRPPRLPRPRPRPTWRPRP | 0.274
RRIRQRPPRLPRPRPRPKLIPRP | -0.0954
RRIRFRPPRLPRPRPRPPWHPRP | 0.087
RRIRTRPPRLPRPRPRPVWMPRP | -0.0336
RRIRLRPPRLPRPRPRPCFNPRP | -0.774
RRIRHRPPRLPRPRPRPGWQPRP | 0.33
RRIRIRPPRLPRPRPRPQYRPRP | -0.0599
RRIRLRPPRLPRPRPRPRPGPRP | 0.687
RRIRMRPPRLPRPRPRPDMCPRP | 1.86
RRIRKRPPRLPRPRPRPWKPPRP | -0.243
RRIRARPPRLPRPRPRPLHIPRP | -0.559
RRIRVRPPRLPRPRPRPEQDPRP | 0.173
RRIRCRPPRLPRPRPRPRITPRP | -0.212
RRIRERPPRLPRPRPRPVVTPRP | -0.95

— the supplement of paper PMC9112550, “Optimization of the antimicrobial peptide Bac7 by deep mutational scanning” (BMC Biology, 2022)
